The values that follow come from patent US10233255B2, “Antibody therapeutics that bind STAT3” (Sorrento Therapeutics, Inc., priority 2016, dated 2019).

One may read the Cmax as the maximum level reached in the sampled fluid or tissue.

For one data set, the system named is MCF-10A cells. Description: Accumulation / internalization of antibody conjugate in MCF-10A cells (fluorescence imaging). Type of data set: cell-based, human. The conditions noted are these: 30 minutes pretreatment, FIG. 14.
The next data set deals with U251 cells. Description: Accumulation / internalization of antibody conjugate in U251 cells (fluorescence imaging). In kind it is cell-based, human. The conditions noted are these: 20 ug/mL, 2 hours at 37° C. The protocol: The same experiments were repeated in the U251 glioblastoma cell line, which also has high levels of STAT3 activity, as described in FIG. 7A. U251 cells were treated with 10 ug/ml of ST3G12-PS antibody conjugate compound 901 in increasing proportions of human serum (1%, 5%, 10% and 20%), for 90 minutes at 37° C. Cells were then fixed, permeabilized and stained with anti-human IgG Alexa546. […] MCF-10A, a normal human mammary epithelial cell line with low levels of STAT3 activity (STAT3 low), was described in FIGS. 7A and 7B. This cell line was also tested according to the above protocol. […] The results of another experiment that was performed to determine accumulation of anti-STAT3 antibody conjugate (e.g. compound 901) are shown in FIG. 7C.
Experiments were carried out to confirm that the ST3G12-PS antibody conjugate (compound 901) was penetrating the cells. Briefly, previously cleaned glass coverslips were coated with collagen for 2 hours at 37° C. 100,000 U251 cells were seeded on the coverslips. Media was removed, and cells were rinsed once with fluorobrite. Next, 20 ug/mL of the specified antibody was added for 2 hours at 37° C. […] In FIG. 10E, red fluorescence indicates the plasma membrane, blue fluorescence indicates the nuclei and green florescence represents the intracellular accumulated ST3G12-PS antibody conjugate compound 901a. […]

Data set [1] is described as follows: Pharmacokinetics in athymic nude mice. The conditions noted are these: administered intravenously.
Source text: (§3) The pharmacokinetic properties of the anti-STAT3 antibody conjugates were examined in athymic nude mice.
The next data set has as its system STAT3 phosphorylation. Kind of data set: IL-6 stimulated STAT3 phosphorylation ELISA on cell lysates. Type of data set: cell-based, human. The conditions noted are these: overnight antibody, IL-6 10 or 40 ng/ml for 20 minutes. The protocol: Normal breast epithelial cells (MCF-10A) and ER+ breast cancer cells (MCF-7) were treated with naked ST3G12 antibody and conjugated ST3G12-PS antibody (compound 901) (shown as “OS-STAT3” in FIGS. 8A and 8B) to determine the effect on STAT3 phosphorylation. Cells were pre-treated overnight with antibody, and then stimulated with various concentrations of IL-6 for 20 minutes (10 ng/ml or 40 ng/ml). IL-6 is a STAT3 activator. Cells were then lysed and the protein lysates were subjected to ELISA to determine the phosphorylation status. […] “OS-AIP” refers to an oligosaccharide conjugated bacterial AIP protein, used as a control.
Background: In an ELISA, binding on a coated surface is turned into a signal by an enzyme label.

Data set [2] concerns the target T1, STAT3 (Homo sapiens, UniProt P40763). Description: Cell binding assay on fixed, permeabilized human cells (PE anti-human IgG, flow cytometry). On the set-up: endogenous in cells; host or cells: MDA-MB-468 (also given as MDA-MB-435), U251, HeLa. The protocol: (§1) Next, the binding of the candidate anti-STAT3 antibodies to cellular targets was tested in cell binding assays using MDA-MB-435 breast cancer cells and U251 cells. The cells were seeded overnight in a 96 well plate, then fixed with PFA and permeabilized with methanol. Cells were incubated with serial dilutions of the anti-STAT3 antibody candidates ST1A5, ST3G12 and ST5G12 for one hour and 30 minutes. Following incubation, the cells were washed and incubated for 30 minutes with phycoerythrin (PE) conjugated anti-human IgG. Fluorescence was measured on an Intellicyte high-throughput flow cytometry analyzer. […] Bevacizumab (Avastin), a monoclonal antibody that inhibits vascular endothelial growth factor A (VEGF-A) was used as a negative control.
(§2) An isotype control was used as a negative control. The experimental procedure was the same as described above for FIGS. 3A and 3B.
In general terms: In flow cytometry, cells or beads pass a laser one at a time.

Data set [3] concerns Human colon cancer HCT116 cells. Description: Penetration of 3D tumor spheroids, HCT116 cells. The conditions noted are these: alexa fluor 488 labeled, FIG. 18C. Type of data set: cell-based. The protocol:
Next, experiments were carried out to determine the effect of the STAT3 antibody conjugate on penetration of tumor cells and on tumor cell growth in a three-dimensional (3D) model. 3D in vitro models, such as a tumor spheroid model, have been used in cancer research as an intermediate model between in vitro cancer cell line cultures and in vivo tumor. Human colon cancer HCT116 cells were grown in a 3D tumor spheroid model in a ULA (ultra low attachment) plate, and treated with alexa fluor 488 dye labeled anti-STAT3 monoclonal antibody or alexa fluor labeled anti-STAT3 antibody conjugate (compound 901) for one hour to initiate the uptake. Thereafter, spheres were imaged every 10 min for the next 80 hours with ImageExpress. FIG. 18C are images that show detection of the alexa fluor. […] Next, the effect of the anti-STAT3 antibody conjugate (compound 901) on the growth of 3D tumor spheroids was examined DU145 human prostate cancer cells were seeded in ULA plate. Spheres were allowed to form for 72 hours then treated with the indicated antibodies for additional 5 days. Growth was monitored by ImageXpress HCS confocal microscopy (FIG. 19A). CTG assay was used to determine percent viability in FIG. 19B and percent killing in FIG. 19C. Experiments were done in triplicate wells. Error bars represent one standard deviation.

Data set [4] concerns cellular antigens in U251 cells. Kind of data set: Cell binding of naked versus PS-conjugated antibody in U251 cells (HTFC). On the set-up: species or system human. The conditions noted are these: permeabilized U251 cells, FIG. 4. The protocol:
Cell binding of naked anti-STAT3 ST3G12 antibodies (ST3G12) versus compound 901 (ST3G12-PS) was assessed in U251 cells. Cells were lifted, permeabilized and incubated with increasing amounts of naked anti-STAT antibodies and PS anti-STAT antibody (compound 901) in PBS+/−2% fetal bovine serum (FBS). After 45 minutes at room temperature, cells were washed twice and incubated with phycoerythrin (PE) conjugated-anti-human IgG for 20 minutes at room temperature in the dark. Cells were then washed and analyzed by high throughput flow cytometry (HTFC). The results are shown in FIG. 4 for assessment of antibody binding to U251 cells.

Data set [5] concerns the target T1, STAT3. Kind of data set: Biacore T200 affinity measurement, captured antibody vs recombinant human STAT3-GST. Type of data set: binding. The protocol:
Biacore T200 was used to measure the affinity of anti-STAT and anti-STAT-phosphorothioate (PS) antibody (compound 901) to human STAT3. Anti-human Fc antibody (GE, BR-1008-39) was immobilized on a CM5 sensor chip to approximately 1000 RU using standard NHS/EDC coupling methodology. Antibodies (approximately 10 ug/ml) were captured for 60 seconds at a flow rate of 10 ul/min Recombinant human STAT3-GST was serially diluted 2-fold into running buffer (HBS-EP+, starting from […]). All measurements were conducted at a flow rate of 30 ul/min Surfaces were regenerated with 3M MgCl2 (from human antibody kit) for 60 seconds. A 1:1 (Langmuir) binding model was used to fit the data. The results are shown in Table 2, below for anti-STAT3 antibody, ST3G12, and the conjugated anti-STAT3 antibody, ST3G12-PS (compound 901).
(In general: In SPR one partner is held on a chip, and binding of the other changes the refractive index at the surface.)

For data set [6] the following is noted: mouse, in vivo, iv.
Source text: as §3
In the next data set the target is GST protein (Schistosoma japonicum, UniProt P08515). Kind of data set: Biacore binding to GST protein (specificity control).
GST protein, sequence (P08515 whole entry): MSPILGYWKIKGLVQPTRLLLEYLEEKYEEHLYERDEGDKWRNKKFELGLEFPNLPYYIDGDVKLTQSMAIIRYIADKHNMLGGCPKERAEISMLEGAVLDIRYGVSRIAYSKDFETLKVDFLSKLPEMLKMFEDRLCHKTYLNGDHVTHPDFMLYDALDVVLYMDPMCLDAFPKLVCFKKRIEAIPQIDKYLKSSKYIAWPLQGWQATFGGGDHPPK
The next data set concerns the target T2, mouse STAT3 (Mus musculus, UniProt P42227).
T2 construct: endogenous in cells; host or cells: CT-26, MC-38
Kind of data set: Cell binding assay on fixed, permeabilized mouse cell lines (flow cytometry). The conditions noted are these: FIG. 3C. The protocol:
as §1, §2

Entries after “also recorded” stand apart in the source; their conditions may differ.

T1 sequence (P40763 whole entry): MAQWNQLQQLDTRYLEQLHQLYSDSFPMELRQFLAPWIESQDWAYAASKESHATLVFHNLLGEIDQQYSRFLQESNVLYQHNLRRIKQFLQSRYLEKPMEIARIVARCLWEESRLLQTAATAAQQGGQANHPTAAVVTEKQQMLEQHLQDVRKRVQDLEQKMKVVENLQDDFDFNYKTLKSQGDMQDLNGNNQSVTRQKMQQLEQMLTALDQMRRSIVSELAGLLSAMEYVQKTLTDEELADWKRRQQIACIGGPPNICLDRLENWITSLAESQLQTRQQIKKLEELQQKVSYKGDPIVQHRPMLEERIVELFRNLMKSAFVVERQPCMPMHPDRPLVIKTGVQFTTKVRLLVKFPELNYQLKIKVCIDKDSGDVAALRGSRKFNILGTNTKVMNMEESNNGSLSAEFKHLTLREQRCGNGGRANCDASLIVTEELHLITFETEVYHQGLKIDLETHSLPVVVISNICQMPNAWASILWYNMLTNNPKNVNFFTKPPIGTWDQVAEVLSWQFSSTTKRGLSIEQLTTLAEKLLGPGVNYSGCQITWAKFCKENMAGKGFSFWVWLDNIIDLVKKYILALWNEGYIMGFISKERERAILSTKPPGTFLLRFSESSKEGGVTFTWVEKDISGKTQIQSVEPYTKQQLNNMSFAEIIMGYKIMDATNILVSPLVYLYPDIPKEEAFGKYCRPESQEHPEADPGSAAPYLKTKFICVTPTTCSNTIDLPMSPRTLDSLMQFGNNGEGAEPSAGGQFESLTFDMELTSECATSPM
T2 sequence (P42227 whole entry): as the sequence (P40763 whole entry) above, with E760D counted along it

For the molecule `O=C1NC(=NS(=O)(=O)c2cccc3ccccc23)S/C1=C\c1ccc(Br)cc1` [PS2, Pitstop2], the “effect of clathrin inhibitor on ST3G12-PS uptake” value with MCF-10A cells (30 uM and 60 uM) is on record as “inhibited”.
Turning to `CCCCC[C@@H](O)[C@H]1C(=O)O[C@H](C)[C@@H](O)/C=C/C=C/C=C/C=C/C=C(\C)[C@@H](O)C[C@H](O)C[C@H](O)C[C@H](O)C[C@H](O)C[C@H](O)C[C@@H]1O` [filipin], the “effect of caveolin inhibitor on ST3G12-PS uptake” value in the data set on MCF-10A cells (0.5 ug/ml) was “little effect”; in the data set with MCF-10A cells (1.0 ug/ml) it was “greater effect”.

B1: ST3G12: fully human anti-STAT3 antibody, heavy/light chain variable domains SEQ ID NO. 3/SEQ ID NO. 4 (antibody, V domains shown)
VH: QVQLVQSGAEVKKPGASVKVSCKASGYTFTSYYMHWVRQAPGQGLEWMGIINPSGGSTSYAQKFQGRVTMTRDTSTSTVYMELSSLRSEDTAVYYCARSDYVHSFDIWGQGTMVTVSS
VL: QPVLTQPPSASALLGASIKLTCTLSSEHSTYTVEWYQQRPGRSPQYIMNVKSDGSYNKGDGIPDRFMGSSSGADRYLTFSNLQSDDEAEYHCGESHRIDGQVGVVFGGGTKLTVL
For B1, the “cell penetration / internalization by microscopy” value in the data set with U251 cells is “no internalization”. Moreover, in [1], the “CI” value was 18.7 mL/day/kg and the “T ½” value was found to be 76.5 h. Further, the “effect on STAT3 phosphorylation in MCF-10A cells” value with STAT3 phosphorylation (FIG. 8A) is reported as “little to no effect”. For the same molecule, the “effect on STAT3 phosphorylation in MCF-7 cells” value in the data set with STAT3 phosphorylation (FIG. 8B) is given as “little to no effect”. For the same molecule, the “binding to HeLa cell line” value in the data set with STAT3 [2] (HeLa cells, FIG. 3C) was “strong binding”. Besides, in the data set with STAT3 [2] (MDA-MB-468 cells, FIG. 3A), the “STAT3 binding in MDA-MB-468 cells” value is “bound STAT3”. The “STAT3 binding in U251 cells” value with STAT3 [2] (U251 cells, FIG. 3B / 3C) is “bound STAT3; also recorded: strong binding”. Further, in data set [3], the “penetration of tumor spheroids” value is on record as “did not”. The “antibody binding to U251 cells, naked versus conjugated” value in data set [4] is listed as “considerably lower”. Moreover, the Rmax with STAT3 [5] is 174. In the data set with STAT3 [5] (1:1 (Langmuir) binding model), the “Ka” value amounted to 59700 M⁻¹ s⁻¹ and the “Kd” value was found to be 0.000322 s⁻¹. In addition, in data set [6], the “AUC (0-336 hr)” value turned out to be 254.6 µg·days/mL, the “Cmax” value was 79.7 µg/mL and the “Vs s” value came to 0.0833 L/kg. In addition, in the data set with GST protein, the “binding to GST protein” value is reported as “No binding”. Further, the “binding to CT-26 mouse cell line” value with mouse STAT3 (CT-26 cells) is listed as “able to recognize mouse STAT3”. The “binding to MC-38 mouse cell line” value in the data set with mouse STAT3 (MC-38 cells) is “able to recognize mouse STAT3”.
